This note sets out measurements from paper PMC8373067, “The RGG domain in the C-terminus of the DEAD box helicases Dbp2 and Ded1 is necessary for G-quadruplex destabilization”.

The term Kd denotes the concentration at which binding is half-saturated.

Data set [1] concerns the target T1, Dbp2 WT (Schizosaccharomyces pombe, UniProt P24782 1-550). Nature of the data set: EMSA; 10 nM protein, Na+; EMSA: 0.4 nM 32P-oligo (0.2 nM in Fig S4), 50 mM Tris (pH not stated), 50 mM KCl (DNA) or NaCl (RNA), 2 mM MgCl2, 2 mM DTT, 0.25 mg/ml BSA, 10 min at 30 C. Conditions: protein: recombinant, tags: C-terminal poly-His, label: 5'-32P.
For data set [2], the target named is T2, Oga1 WT (Schizosaccharomyces pombe, UniProt O42914 1-284).
T2 sequence: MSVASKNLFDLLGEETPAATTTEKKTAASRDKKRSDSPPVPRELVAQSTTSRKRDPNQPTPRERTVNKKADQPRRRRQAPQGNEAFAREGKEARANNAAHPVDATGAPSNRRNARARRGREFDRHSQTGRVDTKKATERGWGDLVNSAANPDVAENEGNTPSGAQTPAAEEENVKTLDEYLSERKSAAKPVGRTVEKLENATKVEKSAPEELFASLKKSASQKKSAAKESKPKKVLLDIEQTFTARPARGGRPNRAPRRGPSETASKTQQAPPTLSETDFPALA
The description is as above. Conditions: protein: recombinant, tags: C-terminal poly-His, label: 5'-32P.

The target in data set [3] is T3, Ded1 WT (Schizosaccharomyces pombe, UniProt O13370 1-636). The description is as above. The note with it: protein: recombinant, tags: C-terminal poly-His, label: 5'-32P.
T3 sequence (O13370 whole entry): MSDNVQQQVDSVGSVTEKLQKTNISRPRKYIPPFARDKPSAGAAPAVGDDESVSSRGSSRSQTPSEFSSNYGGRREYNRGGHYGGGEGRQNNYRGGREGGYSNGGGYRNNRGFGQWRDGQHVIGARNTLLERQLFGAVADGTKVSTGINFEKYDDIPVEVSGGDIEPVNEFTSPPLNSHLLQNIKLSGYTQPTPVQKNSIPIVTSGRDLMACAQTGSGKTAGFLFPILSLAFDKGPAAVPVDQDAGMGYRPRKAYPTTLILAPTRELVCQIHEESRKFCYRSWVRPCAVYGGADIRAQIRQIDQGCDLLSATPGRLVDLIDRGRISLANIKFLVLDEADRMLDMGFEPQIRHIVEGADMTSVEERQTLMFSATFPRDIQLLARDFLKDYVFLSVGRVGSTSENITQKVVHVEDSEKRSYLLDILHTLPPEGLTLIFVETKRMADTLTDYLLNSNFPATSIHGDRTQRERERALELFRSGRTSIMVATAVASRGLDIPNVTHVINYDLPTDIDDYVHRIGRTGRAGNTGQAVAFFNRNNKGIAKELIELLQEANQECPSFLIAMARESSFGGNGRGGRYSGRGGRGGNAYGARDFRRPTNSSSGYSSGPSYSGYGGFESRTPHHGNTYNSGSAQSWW
The target of data set [4] is T1, Dbp2 WT. As to the kind of experiment: EMSA; K+, 2 mM Mg2+; EMSA: 0.4 nM 32P-oligo (0.2 nM in Fig S4), 50 mM Tris (pH not stated), 50 mM KCl (DNA) or NaCl (RNA), 2 mM MgCl2, 2 mM DTT, 0.25 mg/ml BSA, 10 min at 30 C. The note with it: protein: recombinant; tags: C-terminal poly-His; label: 5'-32P; parallel G4, 5' A10 overhang. Background: A gel shift assay detects complexes by their altered migration in electrophoresis.

For data set [5], the target named is T3, Ded1 WT. The data set is described as above. Conditions: protein: recombinant; tags: C-terminal poly-His; label: 5'-32P; parallel G4, 5' A10 overhang.
Data set [6] concerns the target T1, Dbp2 WT. As to the kind of experiment: EMSA; up to 10 nM protein; EMSA: 0.4 nM 32P-oligo (0.2 nM in Fig S4), 50 mM Tris (pH not stated), 50 mM KCl (DNA) or NaCl (RNA), 2 mM MgCl2, 2 mM DTT, 0.25 mg/ml BSA, 10 min at 30 C. Conditions: protein: recombinant; tags: C-terminal poly-His; label: 5'-32P; single strand.
For data set [7], the target named is T2, Oga1 WT. The data set is described as above. The note with it: protein: recombinant; tags: C-terminal poly-His; label: 5'-32P; single strand.
Data set [8] deals with T3, Ded1 WT. Described as above. Conditions: protein: recombinant; tags: C-terminal poly-His; label: 5'-32P; single strand.
The mark [9] stands for this setting: parallel G4, 5' U5 and 3' U5 overhangs.

T1 sequence (P24782 whole entry): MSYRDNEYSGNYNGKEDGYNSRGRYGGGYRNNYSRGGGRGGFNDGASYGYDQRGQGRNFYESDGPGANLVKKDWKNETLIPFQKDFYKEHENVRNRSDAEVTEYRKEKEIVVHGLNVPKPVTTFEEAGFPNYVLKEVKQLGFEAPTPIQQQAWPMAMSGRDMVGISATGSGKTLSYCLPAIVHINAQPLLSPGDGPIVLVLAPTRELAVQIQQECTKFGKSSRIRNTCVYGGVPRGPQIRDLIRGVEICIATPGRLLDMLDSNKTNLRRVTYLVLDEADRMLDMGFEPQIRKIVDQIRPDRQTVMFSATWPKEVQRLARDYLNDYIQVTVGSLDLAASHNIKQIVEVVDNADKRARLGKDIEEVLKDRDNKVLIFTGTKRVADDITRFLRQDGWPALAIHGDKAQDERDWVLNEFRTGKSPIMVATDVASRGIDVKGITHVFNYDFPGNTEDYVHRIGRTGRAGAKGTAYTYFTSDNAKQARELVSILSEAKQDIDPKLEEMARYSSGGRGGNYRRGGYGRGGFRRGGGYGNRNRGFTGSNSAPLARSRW

Take UUUUUGGGGAAGGGUGGGGCAUGUUAUGGGUUUUU (structured_RNA) [5'-RNA-G4-3' (5U-G4-5U RNA)]: the binding result in the data set with Dbp2 WT [1] (setting [9]), with Oga1 WT [2] (setting [9]) and with Ded1 WT [3] (setting [9]) was “binds” in each case.

Consider AAAAAAAAAAGGGGAAGGGUGGGGCAUGUUAUGGG (structured_RNA) [5'-RNA-G4 (10A-G4 RNA)], for which the binding result with Dbp2 WT [1], in the data set with Oga1 WT [2] and in the data set with Ded1 WT [3] was “binds” in each case.

Consider AAAAAAAAAAGGGGAAGGGTGGGGCATGTTATGGG (structured_DNA) [10A-rDNA G4], for which the values for the Kd with Dbp2 WT [4] and with Ded1 WT [5] were 3.84 ± 1.06 nM and 6.59 ± 0.1 nM, respectively.

As to AAAAAAAAAAGGTGCGAGGTGAGTGTGGAGTGAGG (ssDNA) [10A-rDNA scr], the binding result in the data set with Dbp2 WT [6], with Oga1 WT [7] and with Ded1 WT [8] was “no binding” each time.
